According to US20130052195A1 (EMERGENT PRODUCT DEVELOPMENT SEATTLE, published 2013):

Target: T1, murine IL6 (murine, UniProt P08505 25-211)
T1 construct: also called mIL-6; mIL6
T1 sequence (looked up): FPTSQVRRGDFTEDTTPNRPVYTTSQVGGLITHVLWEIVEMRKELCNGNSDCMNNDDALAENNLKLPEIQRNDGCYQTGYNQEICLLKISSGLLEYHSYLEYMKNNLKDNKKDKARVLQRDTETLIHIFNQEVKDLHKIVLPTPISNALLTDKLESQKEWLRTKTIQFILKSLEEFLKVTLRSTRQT
Experiment: not described (statement in Example 1)

- binding result: no binding
B1: A2-XT6 (multi-target binding molecule with the TNFR extracellular domain (ECD) at the N-terminal end and the anti-hyperIL6 scFv at the carboxy-terminal end) (other)
chain: LPAQVAFTPYAPEPGSTCRLREYYDQTAQMCCSKCSPGQHAKVFCTKTSDTVCDSCEDSTYTQLWNWVPECLSCGSRCSSDQVETQACTREQNRICTCRPGWYCALSKQEGCRLCAPLRKCRPGFGVARPGTETSDVVCKPCAPGTFSNTTSSTDICRPHQICNVVAIPGNASMDAVCTSTSPTRSMAPGAVHLPQPVSTRSQHTQPTPEPSTAPSTSFLLPMGPSPPAEGSTGDTGEPKSSDKTHTCPPCPAPEAAGAPSVFLFPPKPKDTLMISRTPEVTCVVVDVSHEDPEVKFNWYVDGVEVHNAKTKPREEQYNSTYRVVSVLTVLHQDWLNGKAYACAVSNKALPAPIEKTISKAKGQPREPQVYTLPPSRDELTKNQVSLTCLVKGFYPSDIAVEWESNGQPENNYKTTPPVLDSDGSFFLYSKLTVDKSRWQQGNVFSCSVMHEALHNHYTQKSLSLSPGQRHNNSSLNTRTQKARHSPNSEVQLLESGGGLVQPGGSLRLSCAASGFTFSFYQMHWVRQAPGKGLEWVSGIYPSGGYTKYADSVKGRFTISRDNSKNTLYLQMNSLRAEDTAVYYCARDLGYGSSWYYFDYWGQGTLVTVSSGGGGSGGGGSGGGGSQSALTQPASVSGSPGQSITISCSGTDSDVGGYNHVSWYQQHPGKAPKLIIYDVDHRPSGISNRFSGSKSGNTASLTISGLQAEDEADYYCSSYRSGSTYVFGTGTKVTVL
notes: also called Zeu080a; TRU(XT6)-1002
